# Measured values as given in patent US20200407452A1 (published 2020).
# Key:
# human MET ECD [1] = target: T1, human MET ECD (human, UniProt P08581 25-932); experiment: ELISA, MET ECD coated, mAb 0-40 nM, mouse IgG format
# T1 construct: range 1-932; recombinant; range as printed includes the signal peptide; also called hMET; hMET ECD
# mouse MET ECD [2] = target: T2, mouse MET ECD (mouse, UniProt P16056 25-931); experiment: as above
# T2 construct: range 1-931; recombinant; range as printed includes the signal peptide; also called mMET; mMET ECD
# [3] = target: human MET ECD mutant A (mutations 1, 2, 3) (human) (UniProt P08581); experiment: ELISA, WT or mutant hMET ECD coated
# [4] = target: human MET ECD mutant D (mutations 1, 2) (human) (UniProt P08581); experiment: ELISA, WT or mutant hMET ECD coated
# [5] = target: human MET ECD mutant E (mutations 2, 3, 4) (human) (UniProt P08581); experiment: ELISA, WT or mutant hMET ECD coated
# [6] = target: human MET ECD mutant H (mutations 2, 4) (human) (UniProt P08581); experiment: ELISA, WT or mutant hMET ECD coated
# [7] = target: T3, native mouse MET on living cells (mouse, UniProt P16056 25-1379); experiment: cell-based or functional assay
# [8] = target: T4, native human MET on living cells (human, UniProt P08581 25-1390); experiment: cell-based or functional assay
# [9] = target: T3, native mouse MET on living cells; experiment: cell-based or functional assay; remark: listed apart in the source
# [10] = target: T4, native human MET on living cells; experiment: cell-based or functional assay; remark: listed apart in the source
# human MET ECD [11] = target: T1, human MET ECD; experiment: ELISA, WT or mutant hMET ECD coated
# Method: Using human MET as a template, we mutagenized each of these residues in different permutations, generating a series of MET mutants that are fully human except for specific residues, which are llama. Next, we tested the affinity of selected SEMA-binding mAbs (71D6, 71C3, 71D4, 71A3, 71G2) and PSI-binding mAbs (76H10 and 71G3) for these MET mutants by ELISA. To this end, the various MET proteins were immobilized in solid phase (100 ng/well in a 96-well plate) and then exposed to increasing concentrations of antibodies (0-50 nM) solution. […] Wild-type human MET was used as positive control.
# TABLE 24 The epitopes of MET responsible for agonistic antibody binding represent residues conserved among H. sapiens, M. musculus, R. norvegicus, M. fascicularis but not among the same species and L. glama. The relevance of residues conserved among human, mouse, rat, cynomolgus monkey but not llama MET for binding to agonistic mAbs was tested by ELISA. Wild-type (WT) or mutant (MT) human MET ECD was immobilized in solid phase and exposed to increasing concentrations of mAbs in solution. […] All binding values were normalized to the WT protein and are expressed as % binding (EMAX) compared to WT MET.
# human MET ECD [12] = target: T1, human MET ECD; experiment: ELISA, MET ECD coated, mAb 0-20 nM
# Method: (§1) Production (by transient transfection of mammalian cells) and purification (by protein A affinity chromatography) of the resulting chimeric llama-human IgG1 molecules was outsourced to U-protein Express. Binding of chimeric mAbs to MET was determined by ELISA using hMET or mMET ECD in solid phase and increasing concentrations of antibodies (0-20 nM) in solution. […] Binding capacity (EMAX) varied from antibody to antibody, possibly due to partial epitope exposure in the immobilized antigen, but was similar in the human and mouse setting.
# mouse MET ECD [13] = target: T2, mouse MET ECD; experiment: ELISA, MET ECD coated, mAb 0-20 nM
# Method: as §1
# [14] = target: T4, native human MET on living cells; experiment: FACS, A549 cells
# [15] = target: T3, native mouse MET on living cells; experiment: cell-based or functional assay; remark: listed apart in the source
# [16] = target: T4, native human MET on living cells; experiment: cell-based or functional assay; remark: listed apart in the source
# [17] = target: T3, native mouse MET on living cells; experiment: FACS, MLP29 cells
# [18] = target: human MET ECD mutant J (mutations 6, 7) (human) (UniProt P08581); experiment: ELISA, WT or mutant hMET ECD coated
# [19] = target: human MET ECD mutant I (mutations 6, 7, 8) (human) (UniProt P08581); experiment: ELISA, WT or mutant hMET ECD coated
# human MET ECD [20] = target: T1, human MET ECD; experiment: ELISA, hMET ECD coated
# mouse MET ECD [21] = target: T2, mouse MET ECD; experiment: ELISA, mMET ECD coated
Molecule,% binding (EMAX) vs WT MET ECD [3] [%],% binding (EMAX) vs WT MET ECD [4] [%],% binding (EMAX) vs WT MET ECD [5] [%],% binding (EMAX) vs WT MET ECD [6] [%],"protection from staurosporine-induced apoptosis EC50, MLP29 cells [7] [nM]","protection from staurosporine-induced apoptosis EMAX, MLP29 cells [7] [%]","protection from staurosporine-induced apoptosis EC50, MCF10A cells [8] [nM]","protection from staurosporine-induced apoptosis EMAX, MCF10A cells [8] [%]","phospho-MET ELISA EMAX, MLP29 cells [9] [% HGF activity]","phospho-MET ELISA EMAX, A549 cells [10] [% HGF activity]",% binding (EMAX) vs WT MET ECD (human MET ECD [11]) [%],EMAX (human MET ECD [12]) [OD450 AU],EMAX (mouse MET ECD [13]) [OD450 AU],EMAX [14] [% CTR],"MLP29 MET act. (EMAX, % HGF) [15] [% HGF]",MLP29 br. m. (branch n.) [15] [branches per spheroid],"A549 MET act. (EMAX, % HGF) [16] [% HGF]",LOC br. m. (branch n.) [16] [branches per spheroid],EMAX [17] [% CTR],other results
5D5 mouse anti-human MET antibody,–,–,–,–,–,–,–,–,–,–,–,–,–,–,–,–,–,–,–,EC50 (human MET ECD [1]): 0.197 nM; EMAX (human MET ECD [1]): 3.16 OD450; EC50 (mouse MET ECD [2]): > 40 nM
"71G2 chimeric llama-human IgG1 mAb (antibody, V domains shown, human IgG1 CH1-CH2-CH3 and human CL lambda; also called 71G2 Human IgG1/lambda) VH: EVQLQESGGGLVQPGGSLRLSCAASGFTFSIYDMSWVRQAPGKGLEWVSTINSDGSSTSYVDSVKGRFTISRDNAKNTLYLQMNSLKPEDTAVYYCAKVYGSTWDVGPMGYGMDYWGKGTLVTVSS VL: SSALTQPSALSVSLGQTARITCQGGSLGSSYAHWYQQKPGQAPVLVIYGDDSRPSGIPERFSGSSSGGTATLTISGAQAEDEDDYYCQSTDSSGNTVFGGGTRLTVL",92.1,114,41.4,40.2,1.99,58.3,1.06,64.8,110,101,100,3.09,3.17,137,110,45,106,31.7,131,–
"76H10 chimeric llama-human IgG1 mAb (antibody, V domains shown, human IgG1 CH1-CH2-CH3 and human CL lambda) VH: QLQLVESGGGLVQPGGSLRVSCTASGFTFNTYYMTWVRQAPGKGLEWVSDINSGGGTYYADSVKGRFTISRDNAKNTLYLQMNSLKPEDTALYYCVRVRIWPVGYDYWGQGTQVTVSS VL: QAVVTQEPSLSVSPGGTVTLTCGLSSGSVTTSNYPGWFQQTPGQAPRTLIYNTNNRHSGVPSRFSGSISGNKAALTITGAQPEDEADYYCSLYTGSYTTVFGGGTHLTVL",–,–,–,–,> 32,27.2,> 32,22.8,64.1,61.2,–,2.67,2.66,–,–,–,–,–,–,% binding (EMAX) vs WT MET ECD [18]: 89%; % binding (EMAX) vs WT MET ECD [19]: 100%
"71A3 chimeric llama-human IgG1 mAb (antibody, V domains shown, human IgG1 CH1-CH2-CH3 and human CL lambda) VH: EVQLVESGGGLVQPGGSLRLSCAASGFSFKDYDITWVRQAPGKGLEWVSTITSRSGSTSYVDSVKGRFTISGDNAKNTLYLQMNSLKPEDTAVYYCAKVYATTWDVGPLGYGMDYWGKGTLVTVSS VL: SYELTQPSALSVTLGQTAKITCQGGSLGSSYAHWYQQKPGQAPVLVIYDDDSRPSGIPERFSGSSSGGTATLTISGAQAEDEGDYYCQSADSSGNAAVFGGGTHLTVL",117,128,65.4,76.7,< 0.5,70.5,< 0.5,71.7,96,86.6,100,2.4,2.73,–,–,–,–,–,–,–
"71G3 chimeric llama-human IgG1 mAb (antibody, V domains shown, human IgG1 CH1-CH2-CH3 and human CL lambda; also called 71G3 Human IgG1/lambda) VH: QVQLVESGGGLVQPGGSLRVSCAASGFTFSTYYMSWVRQAPGKGLEWVSDIRTDGGTYYADSVKGRFTMSRDNAKNTLYLQMNSLKPEDTALYYCARTRIFPSGYDYWGQGTQVTVSS VL: QAVVTQEPSLSVSPGGTVTLTCGLSSGSVTTSNYPGWFQQTPGQAPRTLIYNTNSRHSGVPSRFSGSISGNKAALTIMGAQPEDEADYYCSLYPGSTTVFGGGTHLTVL",–,–,–,–,4.85,62.3,5.04,65.2,97.8,95.7,–,2.83,2.98,110,96.8,29.3,94.3,22.3,112,% binding (EMAX) vs WT MET ECD [18]: 91.2%; % binding (EMAX) vs WT MET ECD [19]: 100%
"71D6 chimeric llama-human IgG1 mAb (antibody, V domains shown, human IgG1 CH1-CH2-CH3 and human CL lambda; also called 71D6 Human IgG1/lambda) VH: ELQLVESGGGLVQPGGSLRLSCAASGFTFSSYGMSWVRQAPGKGLEWVSAINSYGGSTSYADSVKGRFTISRDNAKNTLYLQMNSLKPEDTAVYYCAKEVRADLSRYNDYESYDYWGQGTQVTVSS VL: QPVLNQPSALSVTLGQTAKITCQGGSLGARYAHWYQQKPGQAPVLVIYDDDSRPSGIPERFSGSSSGGTATLTISGAQAEDEGDYYCQSADSSGSVFGGGTHLTVL",103,128,43.6,38.6,0.95,68.3,1.48,66.8,115,102,100,2.08,2.01,115,110,41.3,104,32.7,120,EC50 (human MET ECD [20]): 0.032 nM; EC50 (mouse MET ECD [21]): 0.036 nM
"71D6 llama-mouse chimeric mAb (mouse IgG1/lambda) (antibody, V domains shown, also called 71D6 Mouse IgG1/lambda) VH: ELQLVESGGGLVQPGGSLRLSCAASGFTFSSYGMSWVRQAPGKGLEWVSAINSYGGSTSYADSVKGRFTISRDNAKNTLYLQMNSLKPEDTAVYYCAKEVRADLSRYNDYESYDYWGQGTQVTVSS VL: QPVLNQPSALSVTLGQTAKITCQGGSLGARYAHWYQQKPGQAPVLVIYDDDSRPSGIPERFSGSSSGGTATLTISGAQAEDEGDYYCQSADSSGSVFGGGTHLTVLG",–,–,–,–,–,–,–,–,–,–,–,–,–,–,–,39.5,–,30.4,–,EC50 (mouse MET ECD [21]): 0.036 nM
